Numbering of substitutions follows the chain as printed.
B1: SEQ ID NO: 8: PPO from Aspergillus sp. fused to cTP. Chimeric Protein; cloned from SEQ ID NO: 1 (protein)
chain: MELSLLRPTTQSLLPSFSKPNLRLNVYKPLRLRCSVAGGMRLPCASSRVFRQVRAPLALLSRGQRHAVHTKQFDAAVIGGGITGLTAAYQLSRDPSCSKVTLYEKSPHLGGWLSSEQIPVPGGHVVFEYGPRTLRTSSPSCLPMMDLIMNLDLLDDVLICDKKSPAAQNRYIYYPDHLVRLPFPPTEGLLKTAWTLLMEPLFETFLYSAIFEKPKRAENTHILSRDESVADFVSRRFSPKISENLASAVMAGIFAGDVNRLSAEMAIGYVRELEKRYGSIVDGMMTQRASEMRAMPMDELLALESVAVPSHSDDRYWKSLRAVVSDASVLTLKNGLGQLTDAMAAQLRSSRNVEVVTGTEVTSLSQNPKTQDLTIGFGKNESKTHNRVIATHAPSSLARQIQNTKVGVVPSDTIRDLGQNNYAVTVMVVNLYYEDPDLVPVEGFGYLLPSSVPFEQNPERALGVIFGSQSSEGQDTAPGTKLTVMMGGHLWDGWSESDYPDPDKAIEMAQALLHRHLGIKTAPSVARARLLRDAIPQYTVGHLSRMKELSHSVRSDFHKRLTLAGAWYGTVGIGVVDCIRQGYLASSYGVGSKKLGPGNSRRPWTKHDFHNWELEGGIATSPVRLDNVHVTERQHY
B2: SEQ ID NO: 9: PPO from Aspergillus sp. fused to cTP. Chimeric Protein; cloned from SEQ ID NO: 2 (protein)
chain: B1 chain with V49A, S61H, P107S, S325T, K383R, M485I, L625F
B3: SEQ ID NO: 10: PPO from Fusarium sp. fused to cTP. Chimeric Protein; cloned from SEQ ID NO: 3 (protein)
chain: MELSLLRPTTQSLLPSFSKPNLRLNVYKPLRLRCSVAGGMSRRRAESTAVALLSSPAKSHLQPPLRRLDGIRSLSTSSALARRRPIVACNYTQSFNNGRTFVSQAKDANIAVLGGGLTGLTAAYYLAKKLPSTAKITLYESSDRLGGWIKTDRVPVDIEGKSGTLSFERGARSLSSLVGNTFRFDDLVLYDLALDLGLAINSPSQQPRYIYYPDHLVPTPPNISIFDMLREPLYLEIIGASLGLGINSLRKRTLPSKDYSVSEWLYAVSNSRKGIGNLASAMMHGIYGGDIHKLSARCVLDRLYWGWYLPNPGLSVRPMPVAEQALLETLGQDKQIQKMALEPRSALVDFGDKGMESLPQALSAALREQPNITIKTGEAVQDVVYNKANQQVHITSSNAKDNSKHNSKVYDKVISTLSAQDIALLAGNKLPSLSTAHSVSVMTVNIWFPQENLKPPGFGYLIPNSVAPELNPEHALGVFFDSDVQTRSKDEPAGTKLFVLMGGHYYDRPDVTPPTEEEAIIQARNLLERHLGIPRDAPAYATANFARECIPQHYVGHQDRLKAAHTELTRNFGGRLAVAGGSFTRIGAVASLRAGYDAATAAKKGLEATGLEYLNDIQQFSVVATSHIPVRHFK
B4: SEQ ID NO: 12: PPO from Fusarium sp. fused to cTP. Chimeric Protein; cloned from SEQ ID NO: 5 (protein)
chain: B3 chain with L249V, H627Q
B5: SEQ ID NO: 6: PPO from Rhizopus sp. Protein. (protein, listed as Rhizopus sp.)
chain: MSSVAILGGGISGLSAAYYLARMAPPTTKITLIEGKKRLGGWIESRRVTPGHYDNIHQLPKNNSKENTILFEAGPRTLRPEGSNGAILLEMIRHLELNNENLMSVSKSHPSARHRYIYYKDKINTLPSDLQSFLLNKPPVLKSVPLAALLEPLKPSRFDKDGIAKDGIQDESIYSFMTRRFNEHTAIHLMGAVIHGIYAGDIKSLSLQSTLRSLYEAERIYGSAVLGMMKGASQVTTSVRERGMAARSRKEDPEWFGRMEKMSVIGFKSGMDTLPHQITSWLEQCPNVEVITDDPAEHIEIAHENKIKTQKGKTVHADHIISTLPSPVLERLVQHQPVLPHLSYNPSADVAVVNLAYSPDEMKLQYDGFGFLTPHRDTPYGNPLPGTLGVVFDSNALPIESERAVKLTAMIGGSDWKDAFGNVPIDELEPKVALDYTRKAVGTFLDIHAEPRYSMVNLQKQCIPQYLVGHQDRMLSLHHAIKKNYGHALSVSGASYLGVSVPDCIKNSRMLVEELLVSGALGSRQKVVTGLGKLEEQPTVDEMRDNARLSRGNTSVIMKS
B6: SEQ ID NO: 1: PPO from Aspergillus sp. Protein. (protein, listed as Aspergillus sp.)
chain: MRLPCASSRVFRQVRAPLALLSRGQRHAVHTKQFDAAVIGGGITGLTAAYQLSRDPSCSKVTLYEKSPHLGGWLSSEQIPVPGGHVVFEYGPRTLRTSSPSCLPMMDLIMNLDLLDDVLICDKKSPAAQNRYIYYPDHLVRLPFPPTEGLLKTAWTLLMEPLFETFLYSAIFEKPKRAENTHILSRDESVADFVSRRFSPKISENLASAVMAGIFAGDVNRLSAEMAIGYVRELEKRYGSIVDGMMTQRASEMRAMPMDELLALESVAVPSHSDDRYWKSLRAVVSDASVLTLKNGLGQLTDAMAAQLRSSRNVEVVTGTEVTSLSQNPKTQDLTIGFGKNESKTHNRVIATHAPSSLARQIQNTKVGVVPSDTIRDLGQNNYAVTVMVVNLYYEDPDLVPVEGFGYLLPSSVPFEQNPERALGVIFGSQSSEGQDTAPGTKLTVMMGGHLWDGWSESDYPDPDKAIEMAQALLHRHLGIKTAPSVARARLLRDAIPQYTVGHLSRMKELSHSVRSDFHKRLTLAGAWYGTVGIGVVDCIRQGYLASSYGVGSKKLGPGNSRRPWTKHDFHNWELEGGIATSPVRLDNVHVTERQHY
B7: SEQ ID NO: 2: PPO from Aspergillus sp. Protein. (protein, listed as Aspergillus sp.)
chain: B6 chain with V10A, S22H, P68S, S286T, K344R, M446I, L586F

Tested on: transgenic Arabidopsis plants
Format: in vivo
Conditions: Aurora 0.01% to 0.5%; compared to control plants
Description: (SEQ ID NO: 8 was cloned from SEQ ID NO: 1, SEQ ID NO: 9 was cloned from SEQ ID NO: 2, SEQ ID NO: 10 was cloned from SEQ ID NO: 3, SEQ ID NO: 11 was cloned from SEQ ID NO: 4, SEQ ID NO: 12 was cloned from SEQ ID NO: 5, SEQ ID NO: 13 was cloned from SEQ ID NO: 6 SEQ ID NO: 14 was cloned from SEQ ID NO: 7). […] FIG. 1B summarizes the results of the three experiments described hereinabove.

Molecule	level of resistance against Aurora (in words)
B1	very high levels of resistance
B2	very high levels of resistance
B3	not against Aurora
B4	not against Aurora
B5	very high levels of resistance
B6	very high levels of resistance
B7	very high levels of resistance

Same assay, conditions: Strike 0.01% to 1%

Molecule	level of resistance against Strike (in words)
B3	high levels of resistance
B4	high levels of resistance

Same assay, conditions: Strike 0.01% to 1%; 5 orders of magnitude

Molecule	level of resistance to Strike, more tolerant to treatment as compared to control plants
B1	about 10^5
B2	about 10^5
B3	about 10^5
B4	about 10^5
B5	about 10^5
B6	about 10^5
B7	about 10^5

Tested on: Arabidopsis plants
Conditions: Table 1; yes/no

Molecule	High concentration herbicide tolerance
B7	yes

Same assay, conditions: Table 2; yes/no; FIG. 6C legend: Star 1.25 kg/hectare

Molecule	Herbicide tolerance
B7	yes

Source: patent US12674174B2, “Protoporphyrinogen oxidase (PPO) resistance plant” (PLANTARC BIO LTD., priority 2022, dated 2026)
